Consider 1 molecule from patent publication US10577428B2, “Anti-factor XI monoclonal antibodies and methods of use thereof” (Oregon Health & Science University, priority 2007, dated 2020).

The experiment deals with baboons (Papio anubis). Nature of the experiment: Local and systemic TAT, βTG and D-dimer during thrombus formation (4 mm grafts). It is filed as in vivo, baboon (Papio anubis). On the procedure:
A novel local sampling method was used to assess the local production of thrombogenic mediators by sampling blood that superfused propagating experimental thrombi. […] All blood samples were collected into 1/10th volume 3.8% citrate anticoagulant. Systemic samples (1 ml each) were collected before initiation of thrombosis as well as 30 and 60 min into each study. A total of 6 local blood samples were drawn from the peripheral blood IBL at a rate of 100 μl/min over 10 min intervals out of a 0.64 mm port which was located 10 mm distal to the growing thrombus (FIG. 1A). […] Infusion and sampling were regulated by syringe pumps (Harvard Apparatus). Local sampling was performed only with the 4 mm i.d. devices in this study.
Blood cell counts were determined using a micro-60 automated cell counter (Horiba-ABX Diagnostics). Blood samples were divided into two aliquots and processed according to specific test requirements. All samples were placed on ice for 10 min, centrifuged at 4° C. for 10 min at 12,900 g, and the plasmas were stored at −80° C. For β-thromboglobulin (βTG) determinations, the samples were supplemented with 4 μg/ml prostaglandin E1 (PGE1), 4.3 mg/ml acetylsalicylic acid (ASA), and 50 μg/ml PPACK. Cross-reacting ELISA assays were used to determine D-dimer levels (IMUCLONE® D-Dimer, American Diagnostica; LOD: 35 ng/mL), the platelet activation marker βTG (Asserachrom®, Diagnostica Stago; LOD: 5 IU/mL), and thrombin-antithrombin complexes (TAT, Enzygnost-TAT, Dade-Behring; LOD: 2 ng/mL). All ELISA test kits utilized for these studies have previously shown sensitivity to baboon markers.

B1: aXIMab: neutralizing murine IgG/kappa anti-human FXI monoclonal antibody from hybridoma 1A6; binds A3 domain; VH SEQ ID NO:3, VL SEQ ID NO:5 (antibody, listed as Mus musculus, V domains shown)
VH: QVTLKESGPGILKPSQTLSLTCSFSGFSLSTSGMGVGWIRQPSGKGLEWLAHIWWDDDKYYNPSLKSQLTISKDTSRNQVFLKITSVDAADTATYYCARKRSSVVAHYYAMDYWGQGTSVTVSS
VL: DIVLTQSPASLAVSLGQRATISCKASQSVDYDGDSYLNWYQQKPGQPPKLLIYAASNLESGIPARFSGSGSGTDFTLNIHPVEEEDAATYYCQQSNGDPWTFGGGTKLEIK
For the molecule B1, the “βTG release (platelet activation at thrombus surface) reduced” value (at 30 min, samples taken distal to thrombi) came to 86%. The “TAT levels by local sampling reduced” value (at 40 min) is recorded as “up to 98%”. Besides, under “at 60 min”, the “Systemic βTG levels reduced” value is 42% and the “systemic TAT levels reduced versus untreated controls” value is listed as 81%. Further, the “systemic TAT levels” value (at 60 min, n=6, control 22.1±2.5) came to 4.3 ± 0.5 µg/L. The “Systemic βTG levels” value (at 60 min, n=6, vehicle 39.5±5.5) is 23.0±2.1 IU/ml. Further, the “increase in local TAT levels” value (pre-treatment with aXIMab (FIG. 4A)) is “prevented the increase in local TAT levels”.
